These results are taken from article PMC5651264.

The target in this test is His-tagged FRUCTOKINASE6 (FRK6-His) (Arabidopsis thaliana).

In the case of “GST-tagged TWIN SISTER OF FT (GST-TSF) (from UniProt Q9S7R5 1-175) (natural protein)”, the formazan staining of a native PAGE gel (fructokinase enzyme activity staining), 1 μg FRK6-His with 1 μg His-TSF (the His-tagged TSF, not the GST fusion), against FRK6-His alone was found to be 2 fold.
